# Assay results taken from paper PMC10393194.
# Target: THO complex (endogenous, purified via Sub2 and Hpr1-TS) (S. cerevisiae | S. cerevisiae (endogenous in yeast)) (UniProt P17629)
# Test: cryo-EM structure; single-particle cryo-EM of the benzonase-treated native eluate on 2-nm carbon-supported grids; Glacios 200 kV; heterogeneous and nonuniform refinement without imposed symmetry
substance,measurement,value
"THO complex (endogenous, purified via Sub2 and Hpr1-TS) (from UniProt P17629 1-752; P53552 1-1597)",stoichiometry N,2
